Drawing on US20080311122A1, “Antagonists of Hmgb1 and/or Rage and Methods of Use Thereof” (Medimmune, LLC, priority 2005, published 2008), this text covers Kd for 3 molecules.

T1: recombinant HMG1 purified from E. coli as a calmodulin binding protein (CBP) fusion protein (human)
T1 chain: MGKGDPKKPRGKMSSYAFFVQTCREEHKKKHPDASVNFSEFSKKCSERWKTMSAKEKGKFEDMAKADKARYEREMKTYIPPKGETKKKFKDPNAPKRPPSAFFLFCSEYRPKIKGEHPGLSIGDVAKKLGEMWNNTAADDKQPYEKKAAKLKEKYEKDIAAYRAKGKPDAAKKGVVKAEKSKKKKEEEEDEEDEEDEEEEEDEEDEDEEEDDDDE

B1: anti-HMG1 antibody G20 (antibody, V domains shown)
VH: EVQLLESGGGLVQPGGSLRLSCAASGFTFSWYDMFWVRQAPGKGLEWVSWISPSGGYTKYADSVKGRFTISRDNSKNTLYLQMNSLRAEDTAMYYCARSGLDYYDSSGYLDAFDIWGQGTMVTVSS
VL: AQDIQMTQSPSSVSASVGDRVTITCRASQDVSIWLAWYQQKPGKAPKLLIFGASRLQSGVPSRFSGSRSGADFTLTIDSVQPEDFASYYCQQADSFPLTFGGGTKVEIK
B2: anti-HMG1 antibody S17 (antibody, V domains shown)
VH: EVQLLESGGGLVQPGGSLRLSCAASGFTFSYYDMHWVRQAPGKGLEWVSRISPSGGYTWYADSVKGRFTISRDNSKNTLYLQMNSLRAEDTAVYYCTRGRYTSGWHEYFDPWGQGTLVTVSS
VL: AQDIQMTQSPSSLSASVGDRVTITCRASQSIGTYLNWYQQKPGTAPKVLIYAASSLQSGVPSRFSGSGSGTDFTLTISSLQPEDFSTYYCQQSYNTPRTFGQGTKLEIK
B3: anti-HMG1 antibody G2 (antibody, V domains shown)
VH: EVQLLESGGGLVQPGGSLRLSCAASGFTFSWYKMQWVRQAPGKGLEWVSGISPSGGSTAYADSVKGRFTISRDNSKNTLYLQMNSLRAEDTAVYYCAKMGLFNTGNSYVDYWGQGTLVTVSS
VL: AQSELTQPPSVSEAPGQRVTISCSGSTSNIGNNAVIWYQQLPGKAPKLLIYYDDLLPSGVSDRFSGSKSGTSGSLAISGLQSEDEADYYCASWDDNLNGPLFGGGTKLTVL

The experiment deals with T1, recombinant HMG1 purified from E. coli …. Nature of the experiment: BIAcore, mAb immobilized, HMG1 injected, steady-state model. Conditions: remark: other sources report otherwise.
Regarding B1, the dissociation constant Kd is 114 nM.

Turning to B2, the Kd was found to be 331 nM.

Consider B3, for which the Kd was 101 nM.
